The target of one test is His-HDAC2, recombinant (UniProt Q92769 1-488). Put plainly: SPR. In general terms: In SPR one partner is held on a chip, and binding of the other changes the refractive index at the surface.
The next test deals with His-HDAC1, recombinant (human, UniProt Q13547 1-482). Put plainly: SPR.

The record followed here is paper PMC12518634 (2025).

As usually defined, the Kd is the constant that tells how readily two partners part at equilibrium.

Sequence of His-HDAC2, recombinant (Q92769 whole entry): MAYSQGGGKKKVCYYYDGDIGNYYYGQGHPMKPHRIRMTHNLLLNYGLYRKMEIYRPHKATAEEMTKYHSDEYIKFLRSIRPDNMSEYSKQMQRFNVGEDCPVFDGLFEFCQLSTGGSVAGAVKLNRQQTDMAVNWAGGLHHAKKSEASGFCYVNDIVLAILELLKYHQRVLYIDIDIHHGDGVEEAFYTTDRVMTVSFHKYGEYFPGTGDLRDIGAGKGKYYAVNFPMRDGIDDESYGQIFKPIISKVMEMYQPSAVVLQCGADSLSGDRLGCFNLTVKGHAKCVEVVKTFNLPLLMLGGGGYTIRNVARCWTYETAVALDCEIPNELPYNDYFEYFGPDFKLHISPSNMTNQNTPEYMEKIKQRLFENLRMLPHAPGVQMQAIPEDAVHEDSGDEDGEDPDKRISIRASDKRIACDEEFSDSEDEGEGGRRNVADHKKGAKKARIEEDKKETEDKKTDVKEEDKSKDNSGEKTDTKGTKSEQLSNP
Sequence of His-HDAC1, recombinant (Q13547 whole entry): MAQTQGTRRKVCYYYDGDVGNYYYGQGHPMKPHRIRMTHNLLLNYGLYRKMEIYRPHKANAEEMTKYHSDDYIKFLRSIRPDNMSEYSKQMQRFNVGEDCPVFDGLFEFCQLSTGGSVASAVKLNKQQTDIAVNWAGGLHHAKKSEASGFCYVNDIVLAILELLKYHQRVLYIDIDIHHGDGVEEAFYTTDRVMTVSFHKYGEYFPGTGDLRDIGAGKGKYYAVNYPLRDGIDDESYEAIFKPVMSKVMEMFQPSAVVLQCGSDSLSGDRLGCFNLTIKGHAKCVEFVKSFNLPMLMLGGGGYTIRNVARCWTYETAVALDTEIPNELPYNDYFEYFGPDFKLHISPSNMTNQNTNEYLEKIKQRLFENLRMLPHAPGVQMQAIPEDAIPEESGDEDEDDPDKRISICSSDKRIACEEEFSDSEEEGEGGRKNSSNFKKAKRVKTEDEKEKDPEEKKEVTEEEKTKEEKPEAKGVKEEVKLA

B1: GST-PFKL, recombinant (enzyme)
chain: MAAVDLEKLRASGAGKAIGVLTSGGDAQGMNAAVRAVTRMGIYVGAKVFLIYEGYEGLVEGGENIKQANWLSVSNIIQLGGTIIGSARCKAFTTREGRRAAAYNLVQHGITNLCVIGGDGSLTGANIFRSEWGSLLEELVAEGKISETTARTYSHLNIAGLVGSIDNDFCGTDMTIGTDSALHRIMEVIDAITTTAQSHQRTFVLEVMGRHCGYLALVSALASGADWLFIPEAPPEDGWENFMCERLGETRSRGSRLNIIIIAEGAIDRNGKPISSSYVKDLVVQRLGFDTRVTVLGHVQRGGTPSAFDRILSSKMGMEAVMALLEATPDTPACVVTLSGNQSVRLPLMECVQMTKEVQKAMDDKRFDEATQLRGGSFENNWNIYKLLAHQKPPKEKSNFSLAILNVGAPAAGMNAAVRSAVRTGISHGHTVYVVHDGFEGLAKGQVQEVGWHDVAGWLGRGGSMLGTKRTLPKGQLESIVENIRIYGIHALLVVGGFEAYEGVLQLVEARGRYEELCIVMCVIPATISNNVPGTDFSLGSDTAVNAAMESCDRIKQSASGTKRRVFIVETMGGYCGYLATVTGIAVGADAAYVFEDPFNIHDLKVNVEHMTEKMKTDIQRGLVLRNEKCHDYYTTEFLYNLYSSEGKGVFDCRTNVLGHLQQGGAPTPFDRNYGTKLGVKAMLWLSEKLREVYRKGRVFANAPDSACVIGLKKKAVAFSPVTELKKDTDFEHRMPREQWWLSLRLMLKMLAQYRISMAAYVSGELEHVTRRTLSMDKGF
Turning to B1, the Kd was determined as 9.5 nM with His-HDAC2, recombinant and 2.18 nM with His-HDAC1, recombinant.
